Molecular target: human VAP-1 expressed on the surface of transfected Ax rat endothelial cells (human) (UniProt Q16853)
Assay: cell-based or functional assay

Chain of human VAP-1 expressed on the surface of transfected Ax rat endothelial cells (human) (Q16853 whole entry): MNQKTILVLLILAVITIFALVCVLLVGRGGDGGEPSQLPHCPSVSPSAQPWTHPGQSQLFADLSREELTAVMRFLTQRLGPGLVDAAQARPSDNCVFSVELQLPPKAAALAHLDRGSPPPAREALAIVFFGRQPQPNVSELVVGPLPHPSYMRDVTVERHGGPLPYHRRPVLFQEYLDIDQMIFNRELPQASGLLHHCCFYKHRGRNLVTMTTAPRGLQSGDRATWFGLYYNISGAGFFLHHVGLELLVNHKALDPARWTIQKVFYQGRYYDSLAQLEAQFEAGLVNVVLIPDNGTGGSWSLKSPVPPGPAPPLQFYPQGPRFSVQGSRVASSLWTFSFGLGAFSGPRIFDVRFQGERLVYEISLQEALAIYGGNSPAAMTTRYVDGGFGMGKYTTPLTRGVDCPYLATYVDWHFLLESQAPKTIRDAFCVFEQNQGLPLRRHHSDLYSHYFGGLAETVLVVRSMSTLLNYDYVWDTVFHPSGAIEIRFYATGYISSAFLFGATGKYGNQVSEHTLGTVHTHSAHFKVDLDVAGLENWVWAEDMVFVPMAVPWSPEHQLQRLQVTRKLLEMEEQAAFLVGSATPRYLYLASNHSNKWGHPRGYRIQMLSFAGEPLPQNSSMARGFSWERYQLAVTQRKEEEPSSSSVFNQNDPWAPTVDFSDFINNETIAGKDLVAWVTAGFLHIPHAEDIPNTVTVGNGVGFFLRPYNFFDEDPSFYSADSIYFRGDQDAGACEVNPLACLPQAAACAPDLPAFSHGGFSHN

“BTT-1002, chimeric anti-VAP-1 monoclonal antibody” gave a migration of human PBMC through a monolayer of Ax endothelial cells expressing human VAP-1 (in vitro transmigration assay) of 1.

Reference: patent US20110117021A1
